In US20240092919A1:

Columns and labels:
Assay in all cases: cell-based or functional assay
[1] = biological target: human GPC3 on cells (human) (UniProt P51654)
[2] = biological target: Cynomolgus T cell receptor on cynomolgus primary T cells (cynomolgus monkey)
[3] = biological target: Human T cell receptor on human primary T cells (human) (UniProt P01848)
Chain of Human T cell receptor on human primary T cells (human) (P01848 whole entry, chain 1 of 2): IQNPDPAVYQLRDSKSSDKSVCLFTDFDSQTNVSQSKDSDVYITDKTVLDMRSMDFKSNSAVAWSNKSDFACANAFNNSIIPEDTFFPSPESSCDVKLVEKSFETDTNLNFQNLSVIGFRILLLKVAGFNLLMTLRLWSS
Chain of Human T cell receptor on human primary T cells (human) (P01850 whole entry, chain 2 of 2, further chain): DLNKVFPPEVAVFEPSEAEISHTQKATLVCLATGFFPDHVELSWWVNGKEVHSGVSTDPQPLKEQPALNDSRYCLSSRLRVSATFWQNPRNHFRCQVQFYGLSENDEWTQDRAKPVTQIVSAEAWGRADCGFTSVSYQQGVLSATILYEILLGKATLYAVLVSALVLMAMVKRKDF

Row | Binder | IC50 (M) BxPC-3, xCELLigence human TDC assay, E:T 15:1, 60 h [1] [M] | IC50 (M) HepG2, xCELLigence human TDC assay, E:T 15:1, 60 h [1] [M] | IC50 (M) Huh-7, xCELLigence human TDC assay, E:T 15:1, 60 h [1] [M] | IC50 (M) NCI-H23, xCELLigence human TDC assay, E:T 15:1, 60 h [1] [M] | IC50 (M) NCI-H661, xCELLigence human TDC assay, E:T 15:1, 60 h [1] [M] | HepG2 on Incucyte IC50 (M), human TDC, E:T 15:1, 60 h [1] [M] | HepG2 on Incucyte Max % killing, 60 h [1] [%] | Huh7 on xCELLigence IC50 (M), human TDC, E:T 15:1, 60 h [1] [M] | Huh7 on xCELLigence Max % killing, 60 h [1] [%] | other results
1 | A022600425 (protein) DVQLVESGGGVVQPGGSLRLSCVASGYVHKINFYGWYRQAPGKEREKVAHISIGDQTDYADSAKGRFTISRDESKNTVYLQMNSLRPEDTAAYYCRALSRIWPYDYWGQGTLVTVSSGGGGSEVQLVESGGGVVQPGGSLRLSCAASGSIFRSVFSSSTMEWYRQAPGKKRELVARIAPGEGTYYGALYADSVKGRFTISRDNAKNTVYLQMNSLRPEDTALYYCASGVAWGQGTLVTVSSGGGGSGGGGSGGGGSGGGGSEVQLVESGGGVVQPGGSLRLSCAASGFTFSSFAMTWVRRPPGKGLEWVATITNAGVTSYADSVKGRFTISRDNAKNTLYLQMNSLRPEDTALYICANARRTGPRAPTDIGSYRGQGTLVTVSSGGGGSGGGSEVQLVESGGGVVQPGGSLRLSCAASGFTFRSFGMSWVRQAPGKGPEWVSSISGSGSDTLYADSVKGRFTISRDNSKNTLYLQMNSLRPEDTALYYCTIGGSLSRSSQGTLVTVSSA | > 1e-07 | 1.11e-10 | 1.58e-10 | > 1e-07 | 2.59e-10 |  |  |  |  | 
2 | A022600426 (protein) DVQLVESGGGVVQPGGSLRLSCVASGYVHKINFYGWYRQAPGKEREKVAHISIGDQTDYADSAKGRFTISRDESKNTVYLQMNSLRPEDTAAYYCRALSRIWPYDYWGQGTLVTVSSGGGGSEVQLVESGGGVVQPGGSLRLSCAASGSIFRSVFSSSTMEWYRQAPGKKRELVARIAPGEGTYYGALYADSVKGRFTISRDNAKNTVYLQMNSLRPEDTALYYCASGVAWGQGTLVTVSSGGGGSGGGGSGGGGSGGGGSEVQLVESGGGVVQPGGSLRLSCAASGFTFSSFAMTWVRRPPGKGLEWVATITNKGVTSYADSVKGRFTISRDNAKNTLYLQMNSLRPEDTALYICANARRTGPRAPTDIGSYRGQGTLVTVSSGGGGSGGGSEVQLVESGGGVVQPGGSLRLSCAASGFTFRSFGMSWVRQAPGKGPEWVSSISGSGSDTLYADSVKGRFTISRDNSKNTLYLQMNSLRPEDTALYYCTIGGSLSRSSQGTLVTVSSA | > 1e-07 | 1.25e-10 | 1.09e-10 | > 1e-07 | 2.64e-10 |  |  |  |  | 
3 | A022600172 (protein) DVQLVESGGGVVQPGGSLRLSCVASGYVHKINFYGWYRQAPGKEREKVAHISIGDQTDYADSAKGRFTISRDESKNTVYLQMNSLRPEDTAAYYCRALSRIWPYDYWGQGTLVTVSSGGGGSEVQLVESGGGLVQPGGSLRLSCVASGFTFSSFAMTWVRRPPGKGLEWVATITNGGVTSYRDSVKGRFTISRDNAKNTLYLEMTSLNPEDTAVYICANARRTGPRAPTDIGSYRGQGTLVTVSSGGGGSGGGSEVQLVESGGGVVQPGGSLRLSCAASGFTFRSFGMSWVRQAPGKGPEWVSSISGSGSDTLYADSVKGRFTISRDNSKNTLYLQMNSLRPEDTALYYCTIGGSLSRSSQGTLVTVSSGGGGSGGGSEVQLVESGGGLVQPGGSLRLSCVASGSIFRSVFSSSTMEWYRQPPGKKRELVARIAPGDGTNYGALYADSVKGRFTISRDDAKKTVDLQMNSLKPEDTGVYFCASGVAWGQGTLVTVSSA |  |  |  |  |  | 6.01e-10 | 81 | 6.7e-11 | 90 | 
4 | T017000139 (bispecific antibody) DVQLVESGGGLVQPGGSLRLSCVASGDVHKINFLGWYRQAPGKEREKVAHISIGDQTDYADSAKGRFTISRDESKNMVYLQMNSLKPEDTAVYFCRAFSRIYPYDYWGQGTLVTVSSGGGGSGGGGSGGGGSGGGGSGGGGSGGGGSGGGGSEVQLVESGGGLVQAGGPLRLSCAASGRTFSSYVMGWFRQAPGKEREFVAAIYWSNGKTQYTDSVKGRFTISGDNAKNTVYLQMNSLNPEDTAVYYCVADKDETGFRTLPIAYDYWGQGTLVTVSSGGGGSGGGGSGGGGSGGGGSGGGGSGGGGSGGGGSEVQLVESGGGLVQAGGSLRLSCAASGITSKINDMGWYRQTPGNYREWVASITATGTTNYRDSVKGRFTISRDNAKSTVYLQMNSLKPEDTTVYYCNTFPPISNFWGQGTLVTVSSA |  |  |  |  |  |  |  |  |  | % lysis, KG-1a, Cynomolgus T cell mediated killing [2]: 26%; % lysis, MOLM-13, Cynomolgus T cell mediated killing [2]: 40%; Average EC50 (M), KG-1a, Cynomolgus T cell mediated killing [2]: 1.2e-11 M; Average EC50 (M), MOLM-13, Cynomolgus T cell mediated killing [2]: 7.2e-11 M; % lysis, KG-1a, Human T cell mediated killing [3]: 51%; % lysis, MOLM-13, Human T cell mediated killing [3]: 25%; Average EC50 (M), KG-1a, Human T cell mediated killing [3]: 7.8e-11 M; Average EC50 (M), MOLM-13, Human T cell mediated killing [3]: 2.5e-11 M; IC50 (M), xCELLigence cell killing, Human T cell mediated killing, E:T 15:1 [3]: 4.7e-11 M
5 | T017000670 (bispecific antibody) DVQLVESGGGVVQPGGSLRLSCVASGYVHKINFYGWYRQAPGKEREKVAHISIGDQTDYADSAKGRFTISRDESKNTVYLQMNSLRPEDTALYYCRALSRIWPYDYWGQGTLVTVSSGGGGSGGGGSGGGGSGGGGSGGGGSGGGGSGGGGSEVQLVESGGGLVQAGGPLRLSCAASGRTFSSYVMGWFRQAPGKEREFVAAIYWSNGKTQYTDSVKGRFTISGDNAKNTVYLQMNSLNPEDTAVYYCVADKDETGFRTLPIAYDYWGQGTLVTVSSGGGGSGGGGSGGGGSGGGGSGGGGSGGGGSGGGGSEVQLVESGGGLVQAGGSLRLSCAASGITSKINDMGWYRQTPGNYREWVASITATGTTNYRDSVKGRFTISRDNAKSTVYLQMNSLKPEDTTVYYCNTFPPISNFWGQGTLVTVSSA |  |  |  |  |  |  |  |  |  | % lysis, KG-1a, Cynomolgus T cell mediated killing [2]: 30%; % lysis, MOLM-13, Cynomolgus T cell mediated killing [2]: 34%; Average EC50 (M), KG-1a, Cynomolgus T cell mediated killing [2]: 8.1e-12 M; Average EC50 (M), MOLM-13, Cynomolgus T cell mediated killing [2]: 2e-11 M; % lysis, KG-1a, Human T cell mediated killing [3]: 52%; % lysis, MOLM-13, Human T cell mediated killing [3]: 26%; Average EC50 (M), KG-1a, Human T cell mediated killing [3]: 7.4e-11 M; Average EC50 (M), MOLM-13, Human T cell mediated killing [3]: 2.5e-11 M; IC50 (M), xCELLigence cell killing, Human T cell mediated killing, E:T 15:1 [3]: 9.4e-11 M
6 | A022600179 (protein) DVQLVESGGGVVQPGGSLRLSCVASGYVHKINFYGWYRQAPGKEREKVAHISIGDQTDYADSAKGRFTISRDESKNTVYLQMNSLRPEDTAAYYCRALSRIWPYDYWGQGTLVTVSSGGGGSEVQLVESGGGLVQPGGSLRLSCVASGFTFSSFAMTWVRRPPGKGLEWVATITNGGVTSYRDSVKGRFTISRDNAKNTLYLEMTSLNPEDTAVYICANARRTGPRAPTDIGSYRGQGTLVTVSSGGGGSGGGSEVQLVESGGGVVQPGGSLRLSCAASGFTFRSFGMSWVRQAPGKGPEWVSSISGSGSDTLYADSVKGRFTISRDNSKNTLYLQMNSLRPEDTALYYCTIGGSLSRSSQGTLVTVSSA |  |  |  |  |  | 2.92e-09 | 76 | 6.13e-09 | 66 | 
7 | A022600412 (protein) DVQLVESGGGVVQPGGSLRLSCVASGYVHKINFYGWYRQAPGKEREKVAHISIGDQTDYADSAKGRFTISRDESKNTVYLQMNSLRPEDTAAYYCRALSRIWPYDYWGQGTLVTVSSGGGGSEVQLVESGGGVVQPGGSLRLSCAASGFTFSSFAMTWVRRPPGKGLEWVATITNAGVTSYADSVKGRFTISRDNAKNTLYLQMNSLRPEDTALYICANARRTGPRAPTDIGSYRGQGTLVTVSSGGGGSGGGGSGGGGSGGGGSEVQLVESGGGVVQPGGSLRLSCAASGFTFRSFGMSWVRQAPGKGPEWVSSISGSGSDTLYADSVKGRFTISRDNSKNTLYLQMNSLRPEDTALYYCTIGGSLSRSSQGTLVTVSSA | > 1e-07 | 3.82e-10 | 1.53e-09 |  | 6.18e-10 |  |  |  |  | 
8 | A022600170 (protein) DVQLVESGGGVVQPGGSLRLSCVASGYVHKINFYGWYRQAPGKEREKVAHISIGDQTDYADSAKGRFTISRDESKNTVYLQMNSLRPEDTAAYYCRALSRIWPYDYWGQGTLVTVSSGGGGSEVQLVESGGGLVQPGGSLRLSCVASGFTFSSFAMTWVRRPPGKGLEWVATITNGGVTSYRDSVKGRFTISRDNAKNTLYLEMTSLNPEDTAVYICANARRTGPRAPTDIGSYRGQGTLVTVSSGGGGSGGGGSGGGGSGGGGSGGGGSGGGGSGGGGSEVQLVESGGGLVQPGGSLRLSCVASGSIFRSVFSSSTMEWYRQPPGKKRELVARIAPGDGTNYGALYADSVKGRFTISRDDAKKTVDLQMNSLKPEDTGVYFCASGVAWGQGTLVTVSSGGGGSGGGSEVQLVESGGGVVQPGGSLRLSCAASGFTFRSFGMSWVRQAPGKGPEWVSSISGSGSDTLYADSVKGRFTISRDNSKNTLYLQMNSLRPEDTALYYCTIGGSLSRSSQGTLVTVSSA |  |  |  |  |  | 3.19e-10 | 97 | 1.86e-10 | 103 | 
9 | A022600427 (protein) DVQLVESGGGVVQPGGSLRLSCVASGYVHKINFYGWYRQAPGKEREKVAHISIGDQTDYADSAKGRFTISRDESKNTVYLQMNSLRPEDTAAYYCRALSRIWPYDYWGQGTLVTVSSGGGGSEVQLVESGGGVVQPGGSLRLSCAASGFTFSSFAMTWVRRPPGKGLEWVATITNAGVTSYADSVKGRFTISRDNAKNTLYLQMNSLRPEDTALYICANARRTGPRAPTDIGSYRGQGTLVTVSSGGGGSGGGSEVQLVESGGGVVQPGGSLRLSCAASGSIFRSVFSSSTMEWYRQAPGKKRELVARIAPGEGTYYGALYADSVKGRFTISRDNAKNTVYLQMNSLRPEDTALYYCASGVAWGQGTLVTVSSGGGGSGGGSEVQLVESGGGVVQPGGSLRLSCAASGFTFRSFGMSWVRQAPGKGPEWVSSISGSGSDTLYADSVKGRFTISRDNSKNTLYLQMNSLRPEDTALYYCTIGGSLSRSSQGTLVTVSSA | > 1e-07 | 1.03e-10 | 1.37e-10 | > 1e-07 | 1e-10 |  |  |  |  | 
